Source: publication PMC2113854
Blank lines part the entries; values can stand above or below the substance they belong to.

Assays:
[1] = molecular target: EGF/TGF-alpha receptor of normal rat kidney (NRK) cells (170-kD receptor species) (rat (endogenous in NRK)); assay: radioligand binding
[2] = molecular target: EGF/TGF-alpha receptor of A431 cells (human (endogenous in A431)) (UniProt P00533); assay: radioligand binding

125I-TGF-alpha bound with 66 nM TGF-beta (NRK membranes) (fmol/mg protein) [1]: 5.6
125I-TGF-alpha bound with 330 nM TGF-beta (NRK membranes) (fmol/mg protein) [1]: 5.6
125I-TGF-alpha bound, no competing ligand (NRK membranes) (fmol/mg protein) [1]: 5.4
Kd, high-affinity sites [1]: 0.2 to 0.3 nM
Kd, low-affinity sites [1]: 2.7 to 2.9 nM
specific binding at 0.3 nM ligand, cells not treated with TGF-beta (Fig. 1A) [1]: 810 cpm/well
Substance: 125I-labeled transforming growth factor-alpha (125I-TGF-alpha) (from UniProt P01134 39-88) (ligand)

125I-TGF-alpha bound with 66 nM TGF-alpha (NRK membranes) (fmol/mg protein) [1]: 1.2
Substance: transforming growth factor-alpha (native, unlabeled TGF-alpha) (from UniProt P01134 39-88) (ligand)

specific binding at 0.3 nM ligand, monolayers not treated with TGF-beta (Fig. 2) [1]: 785 cpm/well
Substance: 125I-labeled mouse submaxillary gland epidermal growth factor (125I-EGF) (ligand)

125I-TGF-alpha bound with 66 nM EGF (NRK membranes) (fmol/mg protein) [1]: 1.6
125I-TGF-alpha bound with 66 nM EGF (A431 membranes) (fmol/mg protein) [2]: 140
Substance: mouse submaxillary gland epidermal growth factor (native, unlabeled EGF) (ligand)
